Values of other authors in paper PMC11128129.
pKd: −log10 of the molar value.

Target: PCSK9 (Homo sapiens) (UniProt Q8NBP7)
Sequence (Q8NBP7 153-692): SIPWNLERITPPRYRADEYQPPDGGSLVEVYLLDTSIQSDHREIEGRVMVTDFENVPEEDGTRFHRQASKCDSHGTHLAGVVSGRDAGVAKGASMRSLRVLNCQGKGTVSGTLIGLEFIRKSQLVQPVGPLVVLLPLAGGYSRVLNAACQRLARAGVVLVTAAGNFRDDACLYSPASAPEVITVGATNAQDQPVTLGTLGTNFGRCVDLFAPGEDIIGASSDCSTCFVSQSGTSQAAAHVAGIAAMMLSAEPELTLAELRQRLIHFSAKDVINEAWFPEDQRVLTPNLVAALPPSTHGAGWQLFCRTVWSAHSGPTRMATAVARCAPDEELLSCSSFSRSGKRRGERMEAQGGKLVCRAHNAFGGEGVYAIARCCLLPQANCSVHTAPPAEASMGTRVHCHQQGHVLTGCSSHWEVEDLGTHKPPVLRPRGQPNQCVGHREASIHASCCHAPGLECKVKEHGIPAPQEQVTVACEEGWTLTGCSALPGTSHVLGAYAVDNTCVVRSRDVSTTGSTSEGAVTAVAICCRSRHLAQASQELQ

pKd: 6.14
Substance: LDLR (from UniProt P01130)
